Test results taken from article doi:10.64898/2025.12.02.691773.

Target: DH-CRBN (human) (UniProt Q96SW2)
Experiment: split reporter
Parameters: unit not given beside the values

Row | AUC of the growth curve with pomalidomide | AUC of the growth curve without compound (DMSO) | Substance
1 | 5130 | 3220 | CHD8 full domain (FD) (from UniProt Q9HCK8 1-2581) (domain or fragment)
2 | 2800 | 1780 | SPART FD (from UniProt Q8N0X7 1-666) (domain or fragment)
